# “Also recorded” adds a separate entry of the source. Like-named read-outs stand apart in the source and are kept apart here.
# Legend:
# [1] = tested on: peripheral blood mononuclear cells (PBMC) of the donor, CD8+ T cells removed
# [2] = tested on: peripheral blood mononuclear cells (PBMC) of the donor, CD8+ T cells removed; remark: listed apart in the source
# [3] = tested on: human GLP-1 overexpressed cell line (GLP-1R/CHO); experiment: Neutralizing capacity of detected anti-HM11260C antibody: inhibition of cAMP induction; type: cell-based; conditions: for Neutralizing Ab: SD rat serum
# Procedure: (§1) Measurement sensitivity in the rat serum was 3.1 ng/ml, and the measurement sensitivity in monkey serum was 12.5 ng/ml. To evaluate the neutralizing capacity against HM11260C of detected anti HM11260C antibody, serum samples and HM11260C were added to the human […] cell line (GLP-1R/CHO) and then the inhibition rate of cAMP-induction was measured.
# [4] = Production of antibodies against long-acting insulinotropic peptide in normal rats, 26-week administration (bridging ELISA); type: in vivo, Sprague Dawley rat; conditions: for % positive / Positive (animals with antibody) / Time point (of positive antibody finding): SD rat
# Procedure: The blood was collected before and during administration, at the 13rd, 19th and 26th week, and at the end of the recovery period, the serum was separated from this. It was determined on whether to produce the antibodies against the insulinotropic peptide.
# (§2) In order to detect whether the conjugate of Example 3 has produced an anti-drug antibody (ADA) in the body of rat or Cynomolgus monkey, the conjugate was examined by the bridging ELISA method. The biotinylated conjugate of Example 3 was bound to the 96-well microplate in which streptavidin was coupled to the bottom thereof, and washed with water. Digoxigenin(DIG)-labeled conjugate of Example 3 (hereinafter, HM11260C) was added along with the serum samples of rat or monkey to react and then washed with water. Then, the horseradish peroxidase-coupled anti-DIG antibody (anti-DIG-POD antibody) was added and developed by TMB substrate (3,3′,5,5′-tetramethylbenzidine substrate).
# as §1
# [5] = Production of antibodies in Cynomolgus monkey, 26-week administration (bridging ELISA); type: in vivo
# Procedure: The blood was taken before and during administration, at the 12th, 19th and 26th week, and at the end of the recovery period, the serum was separated from this. It was determined whether to produce the antibodies against the insulinotropic peptide.
# as §2, §1
# [6] = clinical, literature; cited from earlier work
# [7] = Total of all groups incl. vehicle, n=200
# [8] = Total of all groups incl. vehicle, n=40
substance,measurement,setting,value
imidazoacetyl-exendin-4 [CA Exendin-4],Frequency of Response (%),[1],12%
same,Frequency of Response (%),[2],12%
same,Proliferation and ELISpot %,[2],10%
Imidazo-Acetyl Exendin-4 (Lys27)-Immunoglobulin Fc Conjugate [HM11260C],Neutralizing Ab,[3]; Total of all groups,0
same,Neutralizing Ab,[3]; high dose,0
same,Neutralizing Ab,[3]; low dose,0
same,Neutralizing Ab,[3]; mid dose,0
same,neutralizing ability of the detected antibodies,[3]; sera of the two antibody-positive rats,not neutralizing antibodies; also recorded: no neutralizing ability
same,% positive,"[4]; 26 weeks, high dose, n=60",1.6%
same,% positive,"[4]; 26 weeks, low dose, n=40",2.5%
same,% positive,"[4]; 26 weeks, mid dose, n=40",0%
same,Positive (animals with antibody),"[4]; s.c. once a week 26 weeks + 4 weeks recovery, high dose, n=60",1
same,Positive (animals with antibody),"[4]; s.c. once a week 26 weeks + 4 weeks recovery, low dose, n=40",1
same,Positive (animals with antibody),"[4]; s.c. once a week 26 weeks + 4 weeks recovery, mid dose, n=40",0
same,% positive,[4]; [7],1.0%
same,Positive (animals with antibody),[4]; [7],2
same,Time point (of positive antibody finding),[4]; high dose,recovery
same,Time point (of positive antibody finding),[4]; low dose,Week 13
same,subjects in which antibodies were detected,[4]; among 160 rats administered with the drug,two
same,% positive,[5]; [8],0%
same,Positive/total,[5]; [8],0
same,production of antibodies,[5]; all subjects,no production of the antibodies in all subjects was detected
same,% positive,"[5]; high dose, n=12",0%
same,% positive,"[5]; low dose, n=8",0%
same,% positive,"[5]; mid dose, n=8",0%
same,Positive/total,"[5]; s.c. once a week 26 weeks + 4 weeks recovery, high dose, n=12",0
same,Positive/total,"[5]; s.c. once a week 26 weeks + 4 weeks recovery, low dose, n=8",0
same,Positive/total,"[5]; s.c. once a week 26 weeks + 4 weeks recovery, mid dose, n=8",0
"Keyhole Limpet Haemocyanin [KLH, reference compound]",Proliferation and ELISpot %,[2],80%
Lixisenatide,patients who produced an antibody,[6],60-71%
